# According to IntAct's records for PubMed 20181956:
# B1: Trinucleotide repeat-containing gene 6C protein (Homo sapiens), Q9HCJ0 (parent)
# chain: MEEKKKKKQEEKKKKEGAQKKAADQKTKVPEPTKTCSSQPQPAGTSTSTSTSTISSSNNGKRASASGQQPAASRYLPREVPPRFRQQEQKQLLKRGQPLPTGTLTSVSPTQGAGPAGVSPPPLPGAGTQHHPSKLQPDLSHSGLADHYENSHWGQQPTYRSEANCSWDKVIIDRTDKEAWPSITGTETESASECTTDTDSASNCGSENSSMATGSAQGNFTGHTKKTNGNNGTNGALVQSPSNQSALGAGGANSNGSAARVWGVATGSSSGLAHCSVSGGDGKMDTMIGDGRSQNCWGASNSNAGINLNLNPNANPAAWPVLGHEGTVATGNPSSICSPVSAIGQNMGNQNGNPTGTLGAWGNLLPQESTEPQTSTSQNVSFSAQPQNLNTDGPNNTNPMNSSPNPINAMQTNGLPNWGMAVGMGAIIPPHLQGLPGANGSSVSQVSGGSAEGISNSVWGLSPGNPATGNSNSGFSQGNGDTVNSALSAKQNGSSSAVQKEGSGGNAWDSGPPAGPGILAWGRGSGNNGVGNIHSGAWGHPSRSTSNGVNGEWGKPPNQHSNSDINGKGSTGWESPSVTSQNPTVQPGGEHMNSWAKAASSGTTASEGSSDGSGNHNEGSTGREGTGEGRRRDKGIIDQGHIQLPRNDLDPRVLSNTGWGQTPVKQNTAWEFEESPRSERKNDNGTEAWGCAATQASNSGGKNDGSIMNSTNTSSVSGWVNAPPAAVPANTGWGDSNNKAPSGPGVWGDSISSTAVSTAAAAKSGHAWSGAANQEDKSPTWGEPPKPKSQHWGDGQRSNPAWSAGGGDWADSSSVLGHLGDGKKNGSGWDADSNRSGSGWNDTTRSGNSGWGNSTNTKANPGTNWGETLKPGPQQNWASKPQDNNVSNWGGAASVKQTGTGWIGGPVPVKQKDSSEATGWEEPSPPSIRRKMEIDDGTSAWGDPSNYNNKTVNMWDRNNPVIQSSTTTNTTTTTTTTTSNTTHRVETPPPHQAGTQLNRSPLLGPVSSGWGEMPNVHSKTENSWGEPSSPSTLVDNGTAAWGKPPSSGSGWGDHPAEPPVAFGRAGAPVAASALCKPASKSMQEGWGSGGDEMNLSTSQWEDEEGDVWNNAASQESTSSCSSWGNAPKKGLQKGMKTSGKQDEAWIMSRLIKQLTDMGFPREPAEEALKSNNMNLDQAMSALLEKKVDVDKRGLGVTDHNGMAAKPLGCRPPISKESSVDRPTFLDKDGGLVEEPTPSPFLPSPSLKLPLSHSALPSQALGGIASGLGMQNLNSSRQIPSGNLGMFGNSGAAQARTMQQPPQPPVQPLNSSQPSLRAQVPQFLSPQVQAQLLQFAAKNIGLNPALLTSPINPQHMTMLNQLYQLQLAYQRLQIQQQMLQAQRNVSGSMRQQEQQVARTITNLQQQIQQHQRQLAQALLVKQPPPPPPPPHLSLHPSAGKSAMDSFPSHPQTPGLPDLQTKEQQSSPNTFAPYPLAGLNPNMNVNSMDMTGGLSVKDPSQSQSRLPQWTHPNSMDNLPSAASPLEQNPSKHGAIPGGLSIGPPGKSSIDDSYGRYDLIQNSESPASPPVAVPHSWSRAKSDSDKISNGSSINWPPEFHPGVPWKGLQNIDPENDPDVTPGSVPTGPTINTTIQDVNRYLLKSGGSSPPSSQNATLPSSSAWPLSASGYSSSFSSIASAPSVAGKLSDIKSTWSSGPTSHTQASLSHELWKVPRNSTAPTRPPPGLTNPKPSSTWGASPLGWTSSYSSGSAWSTDTSGRTSSWLVLRNLTPQIDGSTLRTLCLQHGPLITFHLNLTQGNAVVRYSSKEEAAKAQKSLHMCVLGNTTILAEFAGEEEVNRFLAQGQALPPTSSWQSSSASSQPRLSAAGSSHGLVRSDAGHWNAPCLGGKGSSELLWGGVPQYSSSLWGPPSADDSRVIGSPTPLTTLLPGDLLSGESL
# Variants of: B1
# Conditions: with pabp1_human PABPC1, P11940
# pabp1_human PABPC1, P11940, sequence (P11940 whole entry): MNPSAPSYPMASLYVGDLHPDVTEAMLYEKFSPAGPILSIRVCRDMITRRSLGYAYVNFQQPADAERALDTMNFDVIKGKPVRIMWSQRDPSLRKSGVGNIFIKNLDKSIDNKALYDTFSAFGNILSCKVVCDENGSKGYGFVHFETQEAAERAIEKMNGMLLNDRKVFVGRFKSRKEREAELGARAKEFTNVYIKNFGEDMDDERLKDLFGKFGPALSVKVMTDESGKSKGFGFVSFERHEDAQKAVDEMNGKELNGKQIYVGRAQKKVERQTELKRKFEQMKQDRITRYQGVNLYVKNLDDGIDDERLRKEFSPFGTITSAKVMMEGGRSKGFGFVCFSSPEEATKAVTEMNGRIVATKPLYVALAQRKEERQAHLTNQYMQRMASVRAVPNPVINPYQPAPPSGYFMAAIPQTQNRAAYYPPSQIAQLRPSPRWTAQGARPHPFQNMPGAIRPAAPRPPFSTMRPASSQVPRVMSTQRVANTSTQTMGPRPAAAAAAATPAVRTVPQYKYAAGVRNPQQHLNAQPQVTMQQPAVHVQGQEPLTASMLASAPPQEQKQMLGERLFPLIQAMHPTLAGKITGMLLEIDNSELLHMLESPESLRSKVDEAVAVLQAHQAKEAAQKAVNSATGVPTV
row,Variant,effect of a mutation on the interaction
1,G1599A,decreasing interaction
2,W1602A,decreasing interaction

# Variants of: B1
# Conditions: with pabp1_human PABPC1, P11940
# Remark: another data set of the same source
row,Variant,effect of a mutation on the interaction
1,W1592A,decreasing interaction
2,P1593A,decreasing interaction
3,F1596A,disrupting interaction
4,P1601A,decreasing interaction
